Series [1] is described as follows: SEC; preparative SEC on Superdex 200 10/300 GL after Strep-Tactin affinity chromatography; running buffer 20 mM Tris/HCl pH 8.0, 150 mM NaCl; changes of pH, salt and buffering agent, addition of calcium or EDTA had no influence on the monomer/dimer ratio.
In series [2] the target is SmuA(V465E), sucrose isomerase from Serratia plymuthica, produced in the cytoplasm of E. coli (Serratia plymuthica). Described as above.
Series [3] has as its target SmuA(V465E), sucrose isomerase from Serratia plymuthica, produced in the periplasm of E. coli (Serratia plymuthica). The series is described as above.

From publication PMC7496859 come the findings set out here.

As to “SmuA(V465E), sucrose isomerase from Serratia plymuthica, produced in the cytoplasm of E. coli”, the “ratio of dimer to monomer (SEC peaks)” value in series [1] is given as “a ratio of 3 : 1”.
As for “SmuA(V465E), sucrose isomerase from Serratia plymuthica, produced in the cytoplasm of E. coli (enzyme)”, the stoichiometry N in series [2] came to 2.
As to “SmuA(V465E), sucrose isomerase from Serratia plymuthica, produced in the periplasm of E. coli”, in series [1], the “ratio between monomer and dimer (SEC peaks)” value was “the ratio between monomer and dimer to 10 : 1”.
As to “SmuA(V465E), sucrose isomerase from Serratia plymuthica, produced in the periplasm of E. coli (enzyme)”, the stoichiometry N in series [3] was 2.
